From PMC11235164

Biological target: T1, trigger factor (Escherichia coli), P0A850
T1 chain: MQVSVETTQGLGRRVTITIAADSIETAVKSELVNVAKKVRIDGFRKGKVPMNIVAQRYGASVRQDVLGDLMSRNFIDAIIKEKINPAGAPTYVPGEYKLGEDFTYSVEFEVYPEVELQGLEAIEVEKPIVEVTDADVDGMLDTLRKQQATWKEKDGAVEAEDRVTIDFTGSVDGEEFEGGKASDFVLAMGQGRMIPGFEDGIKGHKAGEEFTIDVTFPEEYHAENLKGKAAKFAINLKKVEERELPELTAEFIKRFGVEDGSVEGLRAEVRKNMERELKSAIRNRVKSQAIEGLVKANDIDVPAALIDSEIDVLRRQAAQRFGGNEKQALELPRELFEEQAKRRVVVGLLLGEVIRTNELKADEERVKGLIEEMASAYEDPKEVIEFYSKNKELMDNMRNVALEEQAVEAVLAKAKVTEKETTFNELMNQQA
Experiment: microfluidic diffusional sizing
Conditions: remark: other sources report otherwise

B1: trigger factor, P0A850 (protein)
chain: MQVSVETTQGLGRRVTITIAADSIETAVKSELVNVAKKVRIDGFRKGKVPMNIVAQRYGASVRQDVLGDLMSRNFIDAIIKEKINPAGAPTYVPGEYKLGEDFTYSVEFEVYPEVELQGLEAIEVEKPIVEVTDADVDGMLDTLRKQQATWKEKDGAVEAEDRVTIDFTGSVDGEEFEGGKASDFVLAMGQGRMIPGFEDGIKGHKAGEEFTIDVTFPEEYHAENLKGKAAKFAINLKKVEERELPELTAEFIKRFGVEDGSVEGLRAEVRKNMERELKSAIRNRVKSQAIEGLVKANDIDVPAALIDSEIDVLRRQAAQRFGGNEKQALELPRELFEEQAKRRVVVGLLLGEVIRTNELKADEERVKGLIEEMASAYEDPKEVIEFYSKNKELMDNMRNVALEEQAVEAVLAKAKVTEKETTFNELMNQQA
**Q.** How did the Kd turn out when B1 was run?
**A.** 1500 nM
